# Test system: MS2 coat protein
# Assay: apparent KD of MS2 coat protein; designed switch direction (-1 OFF switch, 1 ON switch): 1; higher = weaker reporter binding
# Outline: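 Each step of the titration lasted 0.8–1.5 h at the lowest concentration and 10–20 min at the highest. The protein, SNAP-549-labelled MS2 coat protein, went from 0.7 or 1.5 nM doubling to 3 µM over RNA switches transcribed on Illumina chips by stalled E. coli RNA polymerase. Normalised cluster fluorescence was curve-fitted, and the per-design median over clusters is given as apparent KD.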
# [1] = input ligand: microRNA oligo, concentration not stated
# [2] = Eterna round: R95, input ligand: FMN 200 uM
# [3] = Eterna round: R95, input ligand: microRNA oligo, concentration not stated
# [4] = Eterna round: R95, input ligand: none
Sequence,apparent KD of MS2 coat protein (input ligand: FMN 200 uM) [nM],apparent KD of MS2 coat protein [1] [nM],apparent KD of MS2 coat protein (input ligand: none) [nM],apparent KD of MS2 coat protein [2] [nM],apparent KD of MS2 coat protein [3] [nM],apparent KD of MS2 coat protein [4] [nM]
"UUAAUGAAGUAAGGAUAUACAUGAGGAUCACUCGUAGAAGGUACUAUACAUGAGGAUCACCCAUGUUCCGGUCAGAAGACUGGA [Mat - Same State NG 1 - JL mod - D3] (Eterna round: R96, puzzle: Same State NG 1)",598,411,316,,,
"UUAAUGAUGUAAGGAUAUACAUGAGGAAAUCUCGUAGAAGGUACAGGACAUGAGGAUCACCCAUGUGUCGCUCAGAAGAGCGUA [Mat - Same State NG 1 - JL mod - D18] (Eterna round: R96, puzzle: Same State NG 1)",86.3,39.6,71.2,,,
"UUAAUUAAUUAAUUAUACAUGAGGAUCACCCAUGUAAGUGAUCAGGAUAUCAGCUCGUUUAGAGCUGAGAAGGGAUACAUGUAA [SSNG3/13-A3] (Eterna round: R96, puzzle: Same State NG 3)",111,139,214,,,
"UUAAUUAUGUAAGGAUAUACAUGAGGAUUUCUCGUAGAAGGUACAUUACAUGAGGAUCACCCAUGUGGGUGUCAGAAGACGCCA [Mat - Same State NG 1 - JL mod - D12] (Eterna round: R96, puzzle: Same State NG 1)",269,210,404,,,
"UUAAUUUACUGAGGAUAUCGUGUCGACUGAGUUGACAUGAGGAUCACCCAUGUGUGAAGUGGUAUCGAGAAGGCAGUUUUCUUA [JR_SSNG2_Sub026] (Eterna round: R96, puzzle: Same State NG 2)",19,76.9,122,,,
"UUACAUGAGGAUCACCCAUGUCGCUGGUAAACUUCGAACCCGCAGGAUAUGUAUGCCACUUUACGACAGAAGGGCGGGUGCCUG [Eternabot solution 47] (Eterna round: R96, puzzle: Same State NG 3)",37.9,50.3,64.3,,,
"UUACCGCGGGUAGGAUAUGGUCACACUUCUAAAACAUGAGGAUCACCCAUGUCCGACACAUAAAGCCAGAAGGACCCGCGGCUC [Esbea] (Eterna round: R96, puzzle: Same State NG 2)",20.8,48.5,71.4,,,
"UUACGUACGUAUGAGGAUAUCCAUAAUAAGACAUGAGGAUCACCCAUGUAAACAAAACAAUAAUGGGAGAAGGCAUACGUACGAA [Mat - Same state - Malcolm Mod - D135] (Eterna round: R96, puzzle: Same State 2)",,53,,,,
"UUACUCAUGUAAGGAUAUGCAGCCGAAACGGCUGCAGAAGGUACUAAAAUACAUGAGGAUCACCCAUGUCUAAUUAAUUAAGAC [Mat - Same State NG 1 - JL mod - D84] (Eterna round: R96, puzzle: Same State NG 1)",139,36.3,66.5,,,
"UUACUCAUGUAAGGAUAUGCAGCCGAAACGGCUGCAGAAGGUACUAUAAUACAUGAGGAUCACCCAUGUCUCUAUUAUAAAGUU [Mat - Same State NG 1 - JL mod - D95] (Eterna round: R96, puzzle: Same State NG 1)",94.8,43.4,49.5,,,
UUAUAACAUGAGGAUCACCCAUGUCAACAAAGUCGAGGAUAUGGGCAAGAAUUGAGAGAACCAGAAGGCGAAUAUU [Mat - Same State 1 - Mod of UCT - D31] (puzzle: Same State 1),,,,78.4,131,148
UUAUAACAUGAGGAUCACCCAUGUCAACAAAGUCGAGGAUAUGGGCAGAGAGGAGAAGAACCAGAAGGCGAAUAUU [Mat - Same State 1 - Mod of UCT - D38] (puzzle: Same State 1),,,,91.2,98.4,94.9
UUAUAACAUGAGGAUCACCCAUGUCAUCUAAGUCGAGGAUAUGGGAAUUAAUUAAUUAAACCAGAAGGCGAAAAUU [Mat - Same State 1 - D91] (puzzle: Same State 1),,,,160,149,783
"UUAUCCUUUUUUUACAUGAGGAUCACCCAUGUUUUUCUUACGUAGGAUAUCGUUGUUUUUUUUUACGAGAAGGACGUAGUAAGA [JR_SSND3_Sub061] (Eterna round: R96, puzzle: Same State NG 3)",41.3,31.9,37.1,,,
"UUAUUAUAUAUAGGAUAUUGAUGUAAUUUAUUUCAAGAAGGAUAUACAUGAGGAUCACCCAUGUUGGAUAGGGUUAGUUUGUUU [JR_SSNG1_Sub079] (Eterna round: R96, puzzle: Same State NG 1)",,74,,,,
"UUAUUAUUUACAUGAGGAUCACCCAUGUUUUUAUGUCAGAGACAGGAUAUAGUAGUCUCGUUUUACUAGAAGGGUCUUUUUAUU [JR_SSNG3_Sub017] (Eterna round: R96, puzzle: Same State NG 3)",15.2,18.9,22.1,,,
"UUAUUAUUUAUAGGAUAUUGAUGUUUGCUAGUACAAGAAGGAUAAACAUGAGGAUCACCCAUGUAGUUUAAGGUUAGUUUGUUU [JR_SSNG1_Sub078] (Eterna round: R96, puzzle: Same State NG 1)",,25.2,,,,
"UUCAACUGAGGAGGAUAUGCAGAGGAUCACCCUGUAGAAGGCCUCGAAAGGAGGAUAUGCAGAGGAUCACCCUGUAGAAGGCCU [pwkr ssNG DX.19] (Eterna round: R96, puzzle: Same State NG 1)",417,148,132,,,
"UUCACCUUAUUUUACAUGAGGAUCACCCAUGUUUUCCCUACGUAGGAUAUCGAUGCUUGAUUGUUCGAGAAGGACGAUGUAAGU [JR_SSND3_Sub055] (Eterna round: R96, puzzle: Same State NG 3)",33.4,21.7,33.3,,,
"UUCACCUUAUUUUACAUGAGGAUCACCCAUGUUUUUUUUACGUAGGAUAUCGAUGCUUGAUUGUUCGAGAAGGACGAUGUAAGU [JR_SSND3_Sub054] (Eterna round: R96, puzzle: Same State NG 3)",27.3,24.3,31.1,,,
"UUCCUUCUCGUAGGAUAUGUAGGAUAUUCCUACAUGAGGAUCACCCAUGUUCGCAUGGAAGAAGGACAGAAGGACGAUCACCCU [pwkr ssNG2 2FMN + 1F5.11] (Eterna round: R96, puzzle: Same State NG 2)",91.3,74.3,98.5,,,
"UUCUCCUUUUUUUACAUGAGGAUCACCCAUGUUUUUCUUACGUAGGAUAUCGUUGAGUGUUUGUACGAGAAGGACGUAGUAAGU [JR_SSND3_Sub059] (Eterna round: R96, puzzle: Same State NG 3)",37.9,50.5,67.9,,,
UUCUCUUUUUAGAGACAAGCUUUUUGAUCACAUGAGGAUCACCCAUGUCUCGUCUUAUGAUUUACUUCGUUAUUUCU [BA Sensor hsa-mir-208a - 2 - 6] (puzzle: Sensor for hsa-mir-208a),,,,160,15.6,125
"UUGAAGAAUAUAGGAUAUUGAAUACAUAUGUUUAACAUGAGGAUCACCCAUGUGGGUUGCGGUAUCGAGAAGGAUAAAUAAUAG [Mat - Same State NG 2 - JL mod - D13] (Eterna round: R96, puzzle: Same State NG 2)",196,122,190,,,
"UUGAAGAAUAUAGGAUAUUGAAUACAUAUGUUUAACAUGAGGAUCACCCAUGUGGGUUGCGGUAUCGAGAAGGAUAAUUACUAG [Mat - Same State NG 2 - JL mod - D12] (Eterna round: R96, puzzle: Same State NG 2)",185,131,140,,,
"UUGAAGAAUUAAGGAUAUCGAGUCGUCAGAUUAAACAUGAGGAUCACCCAUGUGGGUUGCGGUAUCGAGAAGGUAAAUUACAAG [JL JR Sub099 mod 2] (Eterna round: R96, puzzle: Same State NG 2)",20.5,27.2,39.9,,,
"UUGAAGAAUUAAGGAUAUCGAGUCGUCAGAUUAUACAUGAGGAUCACCCAUGUGGGUUGCGGUAUCGAGAAGGUAAAUUACAAG [JL JR Sub099 mod 5] (Eterna round: R96, puzzle: Same State NG 2)",37.5,58.4,60,,,
"UUGAAGAAUUAAGGAUAUUGAAUACAUAUGUUUAACAUGAGGAUCACCCAUGUGGGUUGCGGUAUCGAGAAGGUAAAUAAAUAG [Mat - Same State NG 2 - JL mod - D3] (Eterna round: R96, puzzle: Same State NG 2)",169,110,159,,,
"UUGAAGAAUUAAGGAUAUUGAAUACAUAUGUUUAACAUGAGGAUCACCCAUGUGGGUUGCGGUAUCGAGAAGGUAAAUUAAAAG [Mat - Same State NG 2 - JL mod - D2] (Eterna round: R96, puzzle: Same State NG 2)",142,179,131,,,
